Source: patent publication EP2546652A1

Tests used:
[1] = biological target: nervous necrosis virus (NNV) particles (nervous necrosis virus (from grouper)); assay: immunomagnetic reduction (IMR), logistic fit of IMR (%) against NNV concentration
[2] = biological target: nervous necrosis virus (NNV) particles (nervous necrosis virus (from grouper)); assay: immunomagnetic reduction (IMR), anti-NNV magnetic nanoparticles mixed with NNV solution; value at 5 TCID50/ml NNV
[3] = biological target: nervous necrosis virus (NNV) particles (nervous necrosis virus (from grouper)); assay: immunomagnetic reduction (IMR), anti-NNV magnetic nanoparticles mixed with NNV solution; value at 10^7 TCID50/ml NNV

Which B (high-end value of the IMR signal, logistic fit) [1] does the source give for “nervous necrosis virus antibody (anti-nervous necrosis virus), covalently bound to the dextran shell of Fe3O4 magnetic nanoparticles” here?
The B (high-end value of the IMR signal, logistic fit) was 3.47%.

What about the φo (fitting parameter of the logistic function of IMR signal against NNV concentration) [1] of the same substance?
The φo (fitting parameter of the logistic function of IMR signal against NNV concentration) was 26700 TCID50/ml.

And the IMR signal [2]?
Its IMR signal is 0.84%.

And the IMR signal [3]?
The IMR signal was 3.04%.
